In assay [1] the target is SARS-CoV-2 spike (D614) on pseudovirus (SARS-CoV-2, UniProt P0DTC2 14-1273). Put plainly: cell-based or functional assay.
The target in assay [2] is T1, SARS-CoV-RBD-hFc (SARS-CoV, UniProt P59594 306-527).
T1 construct: domain: RBD
Put plainly: phage ELISA, antigen coated at 5μg/ml, anti-M13 HRP detection.

“And” between values parts separate entries of the source, which are not always exact repeats. Identical values can stand only once.

B1: 4D8-hFc重组蛋白 (单域抗体4D8, purified) (Fc fusion, not shown: a dimerising Fc or GST)
chain: QVQLVQSGGGLVQPGGSLRLSCAASDFDFYDYEMSWVRQAPGKALEWIGEIHHSGSTYYNPSLKSRVTISRDNSKNTLYLQMNTLRAEDTAIYYCVKDFVGADGPFVFDYWGQGTLVTVSS
In the case of B1, the “伪病毒中和 IC50 (Luciferase活性, CHO-ACE2细胞)” value in assay [1] is 1.13 μg/ml and 15 nM.

B2: 4D8克隆 (4D8噬菌体, phage-displayed single-domain antibody clone) (VHH)
VHH: B1 chain
notes: also called 富集克隆4D8
As for B2, the binding result in assay [2] is recorded as “no binding”.

(Values after CN112062838A (UNIV NANJING MEDICAL, dated 2020).)
